Earlier results as cited in PMC8989918.

Key:
[1] = biological target: PTPN22 SH3-binding peptide (Homo sapiens) (UniProt Q9Y2R2)
[2] = biological target: PTPN12 (PTP-PEST) (Homo sapiens) (UniProt Q05209)
Sequence of PTPN12 (PTP-PEST) (Homo sapiens) (Q05209 whole entry): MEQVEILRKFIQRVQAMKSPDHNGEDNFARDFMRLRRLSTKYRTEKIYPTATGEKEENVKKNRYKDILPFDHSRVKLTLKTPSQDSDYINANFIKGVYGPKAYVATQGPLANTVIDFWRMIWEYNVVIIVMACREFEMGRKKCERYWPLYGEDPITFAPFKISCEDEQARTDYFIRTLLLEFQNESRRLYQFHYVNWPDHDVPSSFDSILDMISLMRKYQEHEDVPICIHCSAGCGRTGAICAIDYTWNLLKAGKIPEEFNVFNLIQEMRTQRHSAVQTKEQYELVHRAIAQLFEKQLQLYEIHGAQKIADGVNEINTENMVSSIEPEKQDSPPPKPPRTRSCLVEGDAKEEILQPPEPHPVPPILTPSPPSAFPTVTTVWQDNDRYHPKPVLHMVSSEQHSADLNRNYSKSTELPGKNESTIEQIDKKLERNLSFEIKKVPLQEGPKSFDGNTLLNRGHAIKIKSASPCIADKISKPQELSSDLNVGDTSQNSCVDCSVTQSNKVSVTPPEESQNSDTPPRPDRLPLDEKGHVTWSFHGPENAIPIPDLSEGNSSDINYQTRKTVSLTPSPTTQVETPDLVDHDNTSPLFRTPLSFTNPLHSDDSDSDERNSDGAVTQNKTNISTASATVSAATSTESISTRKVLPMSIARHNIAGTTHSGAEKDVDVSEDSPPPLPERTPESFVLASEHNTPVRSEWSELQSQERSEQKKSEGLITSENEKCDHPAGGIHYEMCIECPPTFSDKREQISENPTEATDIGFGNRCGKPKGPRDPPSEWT

Sequence of Csk SH3 (P41240 6-73): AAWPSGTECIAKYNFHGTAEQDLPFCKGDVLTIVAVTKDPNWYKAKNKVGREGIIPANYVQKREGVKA
Sequence of PTPN22 SH3-binding peptide (Homo sapiens) (Q9Y2R2 whole entry): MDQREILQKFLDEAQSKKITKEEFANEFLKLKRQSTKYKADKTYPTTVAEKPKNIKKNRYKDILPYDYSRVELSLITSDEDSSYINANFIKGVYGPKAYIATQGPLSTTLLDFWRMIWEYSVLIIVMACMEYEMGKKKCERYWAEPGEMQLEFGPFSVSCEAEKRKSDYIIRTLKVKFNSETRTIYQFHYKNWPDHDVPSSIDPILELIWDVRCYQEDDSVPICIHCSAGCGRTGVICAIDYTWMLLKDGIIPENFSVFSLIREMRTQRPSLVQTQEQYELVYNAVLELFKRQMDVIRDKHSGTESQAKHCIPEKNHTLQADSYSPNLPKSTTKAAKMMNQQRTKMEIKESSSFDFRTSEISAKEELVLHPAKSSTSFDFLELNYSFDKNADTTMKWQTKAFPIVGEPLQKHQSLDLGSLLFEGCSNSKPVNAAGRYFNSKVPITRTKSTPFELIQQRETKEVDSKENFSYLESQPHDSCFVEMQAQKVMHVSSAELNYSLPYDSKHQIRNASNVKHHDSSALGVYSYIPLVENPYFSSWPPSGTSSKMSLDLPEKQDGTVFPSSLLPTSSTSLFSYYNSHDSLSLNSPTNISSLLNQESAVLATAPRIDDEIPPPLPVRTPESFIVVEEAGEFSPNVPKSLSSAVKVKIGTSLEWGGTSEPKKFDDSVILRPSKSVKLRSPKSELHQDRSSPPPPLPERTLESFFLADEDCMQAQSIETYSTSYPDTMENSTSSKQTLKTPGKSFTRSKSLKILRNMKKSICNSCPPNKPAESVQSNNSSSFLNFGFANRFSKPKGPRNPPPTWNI

## Csk SH3 (from UniProt P41240)
[1]
  Kd: 0.8 µM
[2]
  Kd: 8 µM
